Source: patent US20220213221 (published 2022)
Like-named read-outs stand apart in the source and are kept apart here.

T1: RhoC Q63L (human, UniProt P08134)
T1 chain: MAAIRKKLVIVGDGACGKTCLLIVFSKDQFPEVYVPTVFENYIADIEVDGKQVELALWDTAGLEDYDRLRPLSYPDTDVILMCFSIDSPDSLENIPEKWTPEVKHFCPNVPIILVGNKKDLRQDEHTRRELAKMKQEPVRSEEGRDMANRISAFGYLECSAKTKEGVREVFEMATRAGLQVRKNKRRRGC

T2: RhoB Q63L (human, UniProt P62745)
T2 chain: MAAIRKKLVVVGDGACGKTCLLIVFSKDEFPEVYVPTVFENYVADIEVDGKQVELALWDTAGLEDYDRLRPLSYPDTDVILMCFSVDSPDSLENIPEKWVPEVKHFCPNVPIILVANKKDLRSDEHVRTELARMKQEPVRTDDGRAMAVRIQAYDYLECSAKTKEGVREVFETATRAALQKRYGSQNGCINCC


Legend:
RhoA T19N [1] = biological target: T3, RhoA T19N (human, UniProt P61586)
T3 sequence (P61586 1-190 T19N): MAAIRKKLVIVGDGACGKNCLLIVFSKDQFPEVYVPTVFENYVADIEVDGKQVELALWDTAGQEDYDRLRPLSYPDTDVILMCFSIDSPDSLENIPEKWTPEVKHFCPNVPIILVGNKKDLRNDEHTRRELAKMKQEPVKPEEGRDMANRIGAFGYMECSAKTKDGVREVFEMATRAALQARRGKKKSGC

RhoA Q63L = RhoA Q63L (human, UniProt P61586)
RhoA T19N [2] = biological target: T3, RhoA T19N; experiment: ELISA
RhoC Q63L = biological target: T1, RhoC Q63L
[3] = biological target: RhoA wild type GDP-loaded (human, UniProt P61586); experiment: ELISA
RhoB Q63L = biological target: T2, RhoB Q63L

| binding result (RhoA T19N [1]) | Kd (RhoA Q63L) | Kd (RhoC Q63L) | Kd (RhoB Q63L) | Binder | further results |
| --- | --- | --- | --- | --- | --- |
| no binding |  |  |  | 5SNP48 (antibody, V domains shown) VH: VQLQASGGGFVQPGGSLRLSCAASGTSWFTEVMGWFRQAPGKEREFVSAISGLHDVGTYYADSVKGRFTISRDNSKNTVYLQMNSLRAEDTATYYCAALDKWYTKAMDARKDYWGQGTQVTVSS |  |
|  | 0.265 nM | 0.0479 nM |  | H12 (antibody, V domains shown) VH: VQLQASGGGFVQPGGSLRLSCAASGDGSRIYAMGWFRQAPGKEREFVSAISWEQDWEHYYADSVKGRFTISRDNSKNTVYLQMNSLRAEDTATYYCAAFMTPHRNLTSMYWGQGTQVTVSS | binding result (RhoA T19N [2]): no binding; binding result [3]: no binding |
|  | 0.296 nM | 0.0831 nM | 0.278 nM | 4SNP36 (antibody, V domains shown) VH: VQLQASGGGFVQPGGSLRLSCAASGTSWKDYTMGWFRQAPGKEREFVSAISEGPGAQYYYADSVKGRFTISRDNSKNVYLQMNSLRAEDTATYYCAYSSWQPYVSYWGQGTQVTVSS |  |
| no binding |  |  |  | 5SNP65 (antibody, V domains shown) VH: VQLQASGGGFVQPGGSLRLSCAASGATYEGEAMGWFRQAPGKEREFVSAISSYPSVISYYADSVKGRFTISRDNSKNTVYLQMNSLRAEDTATYYCAYWVNHEGTIREIYWGQGTQVTVSS |  |
|  |  |  | 0.71 nM | B6 (antibody, V domains shown) VH: VQLQASGGGFVQPGGSLRLSCAASGYGSTIETMGWFRQAPGKEREFVSAISRAPGPSQYYADSVKGRFTISRDNSKNTVYLQMNSLRAEDTATYYCAPINNRTMQDSMFLWNYWGQGTQVTVSS |  |
